Test [1] deals with T1, non-fluorescence protein-tagged PRL2 (human, UniProt Q12974-1 1-167).
T1 construct: human PRL2, NP_001356788.1, residues 1-167; Subcloned into pET28a; the limits 1-167 are printed for human PRL2 in the same paragraph; also called non-CyPet-tagged PRL2; source: E. coli Rosetta (DE3), purified (Ni-NTA, SEC)
T1 sequence (looked up): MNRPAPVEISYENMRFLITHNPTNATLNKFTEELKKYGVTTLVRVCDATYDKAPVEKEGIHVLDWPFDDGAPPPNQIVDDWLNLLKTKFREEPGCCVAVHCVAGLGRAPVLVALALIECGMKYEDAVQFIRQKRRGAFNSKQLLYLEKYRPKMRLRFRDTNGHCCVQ
Description: ITC; cell 20 uM PRL2, syringe 200 uM CNNM3 CBS protein, 25 C, 20 mM Tris-HCl pH 7.0, 50 mM NaCl, 1 mM TCEP. The note with it: both partners purified.

The target of test [2] is T2, PRL2 (residues 1-167) with CyPet at its N-terminus (human, UniProt Q12974-1 1-167).
T2 construct: human PRL2 (phosphatase of regenerating liver 2), NP_001356788.1, residues 1-167; GS linker between CyPet and PRL2; pET22c derivative; Methods and discussion sometimes call it YPet-PRL2; also called CyPet-PRL2; CyPet-PRL2 WT; source: E. coli Rosetta (DE3), purified (Ni-NTA, SEC); not shown: CyPet (monomeric mutation A206K), N-terminal, kept
T2 sequence (looked up): T1 sequence (looked up)
Description: FRET or BRET; 30 nM CyPet-PRL2 mixed with serial dilutions of CNNM3 CBS-YPet (0-300 nM) in 96-well plates, TBS (50 mM Tris-HCl pH 8.0, 150 mM NaCl), R.T. 1 h, excitation 435 nm, emission 530 nm. The note with it: both partners purified.

B1: non-YPet-tagged CNNM3 CBS domain (domain or fragment, human, UniProt Q8NE01 301-452, looked up)
chain: YSDLSKGVLRCRTVEDVLTPLEDCFMLDASTVLDFGVLASIMQSGHTRIPVYEEERSNIVDMLYLKDLAFVDPEDCTPLSTITRFYNHPLHFVFNDTKLDAVLEEFKRGKSHLAIVQKVNNEGEGDPFYEVLGLVTLEDVIEEIIRSEILDE
notes: CBS domain of human CNNM3, XP_011509259.1, residues 301-452; Subcloned into pET28a; the limits 301-452 are printed for the CBS domain in the same paragraph; also called non-fluorescence-tagged CNNM3; CNNM3 CBS protein; source: E. coli Rosetta (DE3), purified (Ni-NTA, anion exchange)
Molecule B1 returned a Kd in test [1] of 15.2 ± 5 nM.

B2: CNNM3 CBS domain (residues 301-452) with YPet at its C-terminus (domain or fragment, human, UniProt Q8NE01 301-452, looked up)
chain: B1 chain
notes: CBS domain of human CNNM3 (cyclin M3), XP_011509259.1, residues 301-452; GS linker between the CBS domain and YPet; pET22c derivative; Methods and discussion sometimes call it CNNM3 CBS-CyPet; also called CNNM3-YPet; CNNM3 CBS-YPet; source: E. coli Rosetta (DE3), purified (Ni-NTA, anion exchange); not shown: YPet, C-terminal, kept
As to B2, in test [2], binding was characterised by a dissociation constant (Kd) of 108 ± 16 nM.

(Values after article PMC7393355, “A FRET-based screening method to detect potential inhibitors of the binding of CNNM3 to PRL2” (Scientific Reports, 2020).)
